Experimental data as given in patent US20190153096A1 (COVAGEN, published 2019).

Target: T1, Human C1q (EMD Millipore) (human, UniProt P02745 23-245; P02746 28-253; P02747 29-245)
T1 construct: Bought protein; the three subunits are added from general knowledge
Assay: SPR (BIAcore), antibody immobilised on the chip, human C1q injected at 3.125-200 nM
Procedure: Antibodies were coated onto a CMS chip via amine coupling at coating density of 5000 RU Human C1q (EMD Millipore) was injected in running buffer (PBS pH7.4, 0.05% TWEEN-20) at 200 nM and three-fold serial dilutions thereof at a flow rate of 30 μl/min. Binding was recorded, and KD was determined by curve fitting using the BIAcore software using a steady-state affinity model.

T1 sequence (P02745 23-245 limits assumed, chain 1 of 3): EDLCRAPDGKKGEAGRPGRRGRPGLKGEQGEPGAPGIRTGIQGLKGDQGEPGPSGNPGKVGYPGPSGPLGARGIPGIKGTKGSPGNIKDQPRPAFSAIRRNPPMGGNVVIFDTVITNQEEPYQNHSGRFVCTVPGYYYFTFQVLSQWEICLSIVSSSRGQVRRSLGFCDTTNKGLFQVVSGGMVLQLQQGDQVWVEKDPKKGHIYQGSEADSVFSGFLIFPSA
T1 sequence (P02746 28-253 limits assumed, chain 2 of 3): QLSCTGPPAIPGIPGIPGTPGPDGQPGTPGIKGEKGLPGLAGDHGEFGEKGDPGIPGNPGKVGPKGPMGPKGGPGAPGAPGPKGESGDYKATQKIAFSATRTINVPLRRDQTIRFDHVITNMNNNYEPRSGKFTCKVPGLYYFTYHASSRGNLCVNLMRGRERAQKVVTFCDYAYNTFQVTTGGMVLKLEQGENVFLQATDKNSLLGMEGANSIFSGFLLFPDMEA
T1 sequence (P02747 29-245 limits assumed, chain 3 of 3): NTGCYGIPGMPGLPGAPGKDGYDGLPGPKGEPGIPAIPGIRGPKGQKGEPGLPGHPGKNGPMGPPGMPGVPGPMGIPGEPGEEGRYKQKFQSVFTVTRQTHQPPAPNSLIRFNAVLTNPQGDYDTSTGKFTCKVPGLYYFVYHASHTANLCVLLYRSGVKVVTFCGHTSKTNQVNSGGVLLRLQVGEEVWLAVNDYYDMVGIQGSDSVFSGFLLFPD

B1: mAb1 DANAPA IgG1 (antibody)
heavy: QVQLQQSGAELARPGASVKMSCKASGYTFTRSTMHWVKQRPGQGLEWIGYINPSSAYTNYNQKFKDKATLTADKSSSTAYMQLSSLTSEDSAVYYCASPQVHYDYNGFPYWGQGTLVTVSAASTKGPSVFPLAPSSKSTSGGTAALGCLVKDYFPEPVTVSWNSGALTSGVHTFPAVLQSSGLYSLSSVVTVPSSSLGTQTYICNVNHKPSNTKVDKKVEPKSCDKTHTCPPCPAPELLGGPSVFLFPPKPKDTLMISRTPEVTCVVVAVSHEDPEVKFNWYVDGVEVHNAKTKPREEQYASTYRVVSVLTVLHQDWLNGKEYKCKVSNKALAAPIEKTISKAKGQPREPQVYTLPPSREEMTKNQVSLTCLVKGFYPSDIAVEWESNGQPENNYKTTPPVLDSDGSFFLYSKLTVDKSRWQQGNVFSCSVMHEALHNHYTQKSLSLSPGK
light: QVVLTQSPAIMSAFPGEKVTMTCSASSSVSYMNWYQQKSGTSPKRWIYDSSKLASGVPARFSGSGSGTSYSLTISSMETEDAATYYCQQWSRNPPTFGGGTKLQITRTVAAPSVFIFPPSDEQLKSGTASVVCLLNNFYPREAKVQWKVDNALQSGNSQESVTEQDSKDSTYSLSSTLTLSKADYEKHKVYACEVTHQGLSSPVTKSFNRGEC
notes: mAb1 with D265A, N297A, P329A (EU); also called DANAPA Fc mutated mAb1
binding result: no binding (tested: 200 nM)
